Reference: IntAct's records for PubMed 31515488

B1: Centrosomal protein of 55 kDa (Homo sapiens), Q53EZ4 (parent)
chain: MSSRSTKDLIKSKWGSKPSNSKSETTLEKLKGEIAHLKTSVDEITSGKGKLTDKERHRLLEKIRVLEAEKEKNAYQLTEKDKEIQRLRDQLKARYSTTTLLEQLEETTREGERREQVLKALSEEKDVLKQQLSAATSRIAELESKTNTLRLSQTVAPNCFNSSINNIHEMEIQLKDALEKNQQWLVYDQQREVYVKGLLAKIFELEKKTETAAHSLPQQTKKPESEGYLQEEKQKCYNDLLASAKKDLEVERQTITQLSFELSEFRRKYEETQKEVHNLNQLLYSQRRADVQHLEDDRHKTEKIQKLREENDIARGKLEEEKKRSEELLSQVQFLYTSLLKQQEEQTRVALLEQQMQACTLDFENEKLDRQHVQHQLHVILKELRKARNQITQLESLKQLHEFAITEPLVTFQGETENREKVAASPKSPTAALNESLVECPKCNIQYPATEHRDLLVHVEYCSK
B2: Cytochrome P450 4F12 (Homo sapiens), Q9HCS2 (parent)
chain: MSLLSLPWLGLRPVATSPWLLLLLVVGSWLLARILAWTYAFYNNCRRLQCFPQPPKRNWFWGHLGLITPTEEGLKNSTQMSATYSQGFTVWLGPIIPFIVLCHPDTIRSITNASAAIAPKDNLFIRFLKPWLGEGILLSGGDKWSRHRRMLTPAFHFNILKSYITIFNKSANIMLDKWQHLASEGSSRLDMFEHISLMTLDSLQKCIFSFDSHCQERPSEYIATILELSALVEKRSQHILQHMDFLYYLSHDGRRFHRACRLVHDFTDAVIRERRRTLPTQGIDDFFKDKAKSKTLDFIDVLLLSKDEDGKALSDEDIRAEADTFMFGGHDTTASGLSWVLYNLARHPEYQERCRQEVQELLKDRDPKEIEWDDLAQLPFLTMCVKESLRLHPPAPFISRCCTQDIVLPDGRVIPKGITCLIDIIGVHHNPTVWPDPEVYDPFRFDPENSKGRSPLAFIPFSAGPRNCIGQAFAMAEMKVVLALMLLHFRFLPDHTEPRRKLELIMRAEGGLWLRVEPLNVSLQ
partner: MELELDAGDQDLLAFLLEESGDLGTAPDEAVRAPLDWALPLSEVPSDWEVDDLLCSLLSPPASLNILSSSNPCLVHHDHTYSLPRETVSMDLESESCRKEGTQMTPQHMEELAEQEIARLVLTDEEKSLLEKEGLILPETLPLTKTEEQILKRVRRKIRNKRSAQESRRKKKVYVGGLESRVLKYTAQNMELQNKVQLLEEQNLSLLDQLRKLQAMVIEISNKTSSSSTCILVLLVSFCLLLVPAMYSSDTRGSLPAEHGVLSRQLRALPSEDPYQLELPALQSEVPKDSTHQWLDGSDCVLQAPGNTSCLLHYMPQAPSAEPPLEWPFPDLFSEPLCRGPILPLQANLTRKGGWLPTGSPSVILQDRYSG
B3: Segment polarity protein dishevelled homolog DVL-2 (Homo sapiens), O14641 (parent)
chain: MAGSSTGGGGVGETKVIYHLDEEETPYLVKIPVPAERITLGDFKSVLQRPAGAKYFFKSMDQDFGVVKEEISDDNARLPCFNGRVVSWLVSSDNPQPEMAPPVHEPRAELAPPAPPLPPLPPERTSGIGDSRPPSFHPNVSSSHENLEPETETESVVSLRRERPRRRDSSEHGAGGHRTGGPSRLERHLAGYESSSTLMTSELESTSLGDSDEEDTMSRFSSSTEQSSASRLLKRHRRRRKQRPPRLERTSSFSSVTDSTMSLNIITVTLNMEKYNFLGISIVGQSNERGDGGIYIGSIMKGGAVAADGRIEPGDMLLQVNDMNFENMSNDDAVRVLRDIVHKPGPIVLTVAKCWDPSPQAYFTLPRNEPIQPIDPAAWVSHSAALTGTFPAYPGSSSMSTITSGSSLPDGCEGRGLSVHTDMASVTKAMAAPESGLEVRDRMWLKITIPNAFLGSDVVDWLYHHVEGFPERREARKYASGLLKAGLIRHTVNKITFSEQCYYVFGDLSGGCESYLVNLSLNDNDGSSGASDQDTLAPLPGATPWPLLPTFSYQYPAPHPYSPQPPPYHELSSYTYGGGSASSQHSEGSRSSGSTRSDGGAGRTGRPEERAPESKSGSGSESEPSSRGGSLRRGGEASGTSDGGPPPSRGSTGGAPNLRAHPGLHPYGPPPGMALPYNPMMVVMMPPPPPPVPPAVQPPGAPPVRDLGSVPPELTASRQSFHMAMGNPSEFFVDVM

Variants of: B1
Details: with dpolm_human POLM

| effect of a mutation on the interaction | Variant |
| --- | --- |
| with no effect | R348K |
| with no effect | H57Q |

Variants of: B1
Details: with tead4_human TEAD4, Q15561
Sequence of tead4_human TEAD4, Q15561 (Q15561 whole entry): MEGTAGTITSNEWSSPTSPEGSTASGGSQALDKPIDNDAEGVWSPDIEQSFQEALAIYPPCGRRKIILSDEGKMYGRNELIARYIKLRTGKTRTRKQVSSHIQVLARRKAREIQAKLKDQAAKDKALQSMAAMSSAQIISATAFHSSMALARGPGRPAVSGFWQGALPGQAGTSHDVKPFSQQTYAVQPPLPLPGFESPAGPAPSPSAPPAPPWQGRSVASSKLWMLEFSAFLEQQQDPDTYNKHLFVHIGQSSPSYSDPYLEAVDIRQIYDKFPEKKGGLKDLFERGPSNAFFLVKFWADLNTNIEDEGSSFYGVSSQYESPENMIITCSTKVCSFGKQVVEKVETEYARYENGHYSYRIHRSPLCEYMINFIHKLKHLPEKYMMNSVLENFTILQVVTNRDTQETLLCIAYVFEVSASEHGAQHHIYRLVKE

| effect of a mutation on the interaction | Variant |
| --- | --- |
| with no effect | R348K |
| with no effect | H57Q |

Variants of: B1
Details: with anx11_human ANXA11, P50995
Sequence of anx11_human ANXA11, P50995 (P50995 whole entry): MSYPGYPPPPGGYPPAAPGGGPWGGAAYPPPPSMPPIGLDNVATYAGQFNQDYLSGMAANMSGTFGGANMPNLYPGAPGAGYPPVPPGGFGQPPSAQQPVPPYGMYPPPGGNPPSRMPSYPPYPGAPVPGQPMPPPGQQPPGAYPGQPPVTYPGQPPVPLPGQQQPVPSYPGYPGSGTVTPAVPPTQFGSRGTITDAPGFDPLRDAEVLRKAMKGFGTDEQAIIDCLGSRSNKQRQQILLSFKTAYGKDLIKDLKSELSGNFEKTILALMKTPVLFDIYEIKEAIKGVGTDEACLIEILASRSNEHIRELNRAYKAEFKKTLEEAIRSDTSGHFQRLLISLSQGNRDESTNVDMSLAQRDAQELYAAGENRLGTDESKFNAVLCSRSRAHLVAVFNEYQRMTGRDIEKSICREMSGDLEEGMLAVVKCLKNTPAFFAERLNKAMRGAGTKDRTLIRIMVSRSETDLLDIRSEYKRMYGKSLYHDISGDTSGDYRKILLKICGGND

| effect of a mutation on the interaction | Variant |
| --- | --- |
| with no effect | R348K |
| with no effect | H57Q |

Variants of: B1
Details: with pdc6i_human PDCD6IP

| effect of a mutation on the interaction | Variant |
| --- | --- |
| with no effect | R348K |
| with no effect | H57Q |

Variants of: B2
Details: with creb3_human CREB3, O43889

| effect of a mutation on the interaction | Variant |
| --- | --- |
| with no effect | R272Q |
| disrupting interaction strength | R254W |

Variants of: B3
Details: with thap1_human THAP1, Q9NVV9
Sequence of thap1_human THAP1, Q9NVV9 (Q9NVV9 whole entry): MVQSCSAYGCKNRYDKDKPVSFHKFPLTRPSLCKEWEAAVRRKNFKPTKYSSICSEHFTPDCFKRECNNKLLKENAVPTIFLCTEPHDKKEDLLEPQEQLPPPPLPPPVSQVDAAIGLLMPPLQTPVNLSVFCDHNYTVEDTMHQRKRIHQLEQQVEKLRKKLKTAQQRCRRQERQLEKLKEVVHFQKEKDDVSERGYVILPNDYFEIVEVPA

| effect of a mutation on the interaction | Variant |
| --- | --- |
| with no effect | T535I |

Variants of: B3
Details: with kc1e_human CSNK1E

| effect of a mutation on the interaction | Variant |
| --- | --- |
| with no effect | T535I |
